Here are results for one molecule from US20150210998A1.

The test deals with His6-E6AP ligase (full-length, baculovirus-expressed) (human) (UniProt Q05086). Kind of test: inhibition of His6-E6AP-catalyzed 125I-polyubiquitin chain formation, semi-reciprocal plot; non-competitive versus UbcH7.

No end group written: not given here.

B1: N-acetyl-… peptide (peptide)
peptide: Ac-NRIRMYSERRITVLYSL
As to B1, the Ki (in general, the equilibrium dissociation constant of an inhibitor or competing ligand from its target) worked out at 22 µM.
